Data published in US20250320284A1 (AC IMMUNE, published 2025).
Residue numbers refer to the chain shown, from its start.

T1: CARD domain of human ASC (human, UniProt Q9ULZ3 107-195)
T1 construct: biotinylated in BLI; also called hCARD; human CARD
T1 sequence: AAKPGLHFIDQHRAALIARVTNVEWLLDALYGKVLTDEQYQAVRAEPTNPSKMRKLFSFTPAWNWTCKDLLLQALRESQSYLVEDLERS

T2: mouse ASC (mouse, UniProt Q9EPB4 1-193)
T2 construct: recombinant mASC in ELISA and SPR; endogenous ASC of J774.A1 cells in Western blot and immunofluorescence; also called mASC
T2 sequence: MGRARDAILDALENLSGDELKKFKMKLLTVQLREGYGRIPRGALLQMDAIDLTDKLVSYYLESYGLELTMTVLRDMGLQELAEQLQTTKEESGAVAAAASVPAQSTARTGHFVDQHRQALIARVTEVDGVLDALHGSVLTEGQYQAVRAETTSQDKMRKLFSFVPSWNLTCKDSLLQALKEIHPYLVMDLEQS

B1: ACI-8016-26A1G2-AB1 (antibody, V domains shown)
VH: QVQLQQSGAELARPGASVKLSCKASGYNFTTYGINWVKQRTGQGLEWIGKIYPRSGNTHNNENFKGKATLTADTSSSTAYMDLRSLTSEDSAVYFCARSPYAFYSSSYWYFDVWGTGTTVTVSS
VL: DIKMTQSPSSMYASLGERVTITCKASQDIKSYLSWYQQKPWKSPKTLIYYATSLADGVPSRFSGSGSGQDYSLTISSLESDDTATYYCLQHGESPFTFGSGTKLEIK
notes: also called 936.26A1G2; ACI-8016-26A1G2-AB1_hmG2c
B2: ACI-8016-22D3A6-AB1 (antibody, V domains shown)
VH: QAQLQQSGTELARPGSSVKLSCKASGFTFTIYGINWVKQRTGQGLEWIGEIYPRSGNTYYDEKFKGKATLTADKSTSTAYMELRSLTSEDSAVYFCARSREWEGVFWGQGTLVTVSA
VL: QIVLTQSPAIMSAFPGEKVTITCSATSSVSYMHWFQQKPGTSPKLWIYSTSNLASGVPARFSGSGSGTSHSLTINRMEAEDAATYYCQQRSRYPFTFGSGTKLEIK
notes: also called 936.22D3A6; ACI-8016-22D3A6-AB1_hmG2c
B3: ACI-8016-2617C3A8-AB1 (antibody, V domains shown)
VH: QVQLQQSGVELARPGASVKLSCKASGSTFTSYSITWVKQRTGQGLEWIGVIYPRSDNTYYDEKFKGKATLTADKSSSTAYIELRSLTSEDSAVYFCATRDYWGQGTTLTVSS
VL: B2 VL with F14S, T26S, H33Y, L45F, H70Y, N75S, R92N
B4: ACI-8016-18F4C12-AB1 (antibody, V domains shown)
VH: EVQLQQSGAELVRPGSSVKMTCKTSGYSFSSYGMSWVKQRPGQGLEWIGYIYVGNGYTEYNEKFKGKATLTSDTSSSTVYMDFRSLTSEDSAIYFCARLNRGRALDFWGQGTTLTVSS
VL: DIVLTQSPASLAVSLGQRATISCRASQSVSTSGHSYMHWYQQKPRQSPKLLIHFASNLESGVPARFTGSGSGTDFTLNIHPVEEEDAATYYCQHSWDLPYTFGGGTKLEIK
notes: also called 936.18F4C12
B5: ACI-8016-32B6C7-AB1 (antibody, V domains shown)
VH: QVQLQQSDAELVKPGASVKISCKISGYTFTDQTIHWMNQRPEQGLEWIGYIYPGDGSAMYNEKFRGKATLTADKSSSTAYMQLNSLTSEDSAVYFCARPLYSYASYYWFAYWGQGTLVTVSA
VL: DIQMNQSPSSLSASLGDTITITCHASQNINVWLSWYQRKPGNIPKLLIYKSSNLHTGVPSRFSGSGSGTGFTLTISSLQPEDIATYYCQQGQSYPLTFGGGTKLEIK
notes: also called 936.32B6C7

These binders were tested against T3, PYD domain of human ASC (human, UniProt Q9ULZ3 1-91, limits assumed) (assay: BLI binning on PYD, competitor 416E6G4-AB1).
T3 construct: biotinylated in BLI; His/MBP-tagged in the alanine ELISA; also called hPYD; human PYD
T3 sequence (Q9ULZ3 1-91 limits assumed): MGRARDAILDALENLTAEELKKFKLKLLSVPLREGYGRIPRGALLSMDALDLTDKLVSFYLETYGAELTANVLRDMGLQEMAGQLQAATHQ

| normalized binding response [%] | Binder |
| --- | --- |
| 14 | B1 |
| 2 | B2 |
| 4 | B3 |

Each binder was assayed against T1, CARD domain of human ASC (assay: BLI binning on CARD, competitor 18F4C12-Ab1).

| normalized binding response [%] | Binder |
| --- | --- |
| 0 | B4 |
| 97 | B5 |

These binders were tested against T1, CARD domain of human ASC (assay: sandwich ELISA on MBP-tagged protein captured by anti-MBP antibody, signal as % of hPYD-WT).

| binding result | Binder |
| --- | --- |
| no binding | B1 |
| no binding | B3 |

These binders were tested against T1, CARD domain of human ASC (assay: BLI binning on CARD, competitor 2629E8D1-Ab1).

| normalized binding response [%] | Binder |
| --- | --- |
| 69 | B4 |
| -2 | B5 |

Molecular target: T1, CARD domain of human ASC
Experiment: sandwich ELISA on MBP-tagged protein captured by anti-MBP antibody, signal as % of hPYD-WT
Remark: another data set of the same source

| binding result | Binder |
| --- | --- |
| no binding | B2 |

Each binder was assayed against T1, CARD domain of human ASC (assay: BLI binning on CARD, competitor 32B6C7-Ab1).

| normalized binding response [%] | Binder |
| --- | --- |
| 78 | B4 |
| 0 | B5 |

Each binder was assayed against T2, mouse ASC (assay: ELISA, coated mASC).

| EC50 [nM] | Binder |
| --- | --- |
| 0.2 | B4 |
| 0.15 | B1 |
| 0.14 | B5 |
| 0.27 | B2 |
| 0.23 | B3 |

These binders were tested against T3, PYD domain of human ASC (assay: BLI binning on PYD, competitor 2610H7D3-AB1).

| normalized binding response [%] | Binder |
| --- | --- |
| 22 | B1 |
| 3 | B2 |
| 0 | B3 |

Each binder was assayed against T4, human ASC (apoptosis associated speck-like protein containing a caspase-recruitment domain) (human, UniProt Q9ULZ3 1-195) (assay: cell-based or functional assay).

| Human ASC polymerization assay, IC50 [nM] | Binder |
| --- | --- |
| 4.7 | B4 |
| 4.9 | B1 |
| 12.1 | B5 |
| 4.2 | B2 |
| 6 | B3 |

What follows are binders tested against T2, mouse ASC (assay: cell-based or functional assay).

| Mouse ASC polymerization assay, IC50 [nM] | Binder |
| --- | --- |
| 24.8 | B1 |
| 30.1 | B2 |
| 35.7 | B3 |

These binders were tested against T3, PYD domain of human ASC (assay: ELISA, coated hPYD;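 further: monoclonal antibody binding to plate-coated human ASC PYD measured by ELISA, with a phosphatase substrate absorbance read-out and EC50 from a variable slope curve fit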).

| binding result | EC50 [nM] | Binder |
| --- | --- | --- |
| no binding | – | B4 |
| – | 0.12 | B1 |
| no binding | – | B5 |
| – | 0.2 | B2 |
| – | 0.16 | B3 |

What follows are binders tested against T2, mouse ASC (assay: SPR affinity mode, steady-state fit, apparent KD).

| Kd [nM] | Binder |
| --- | --- |
| 54.5 | B4 |
| 36.9 | B5 |

What follows are binders tested against T3, PYD domain of human ASC (assay: BLI binning on PYD, competitor 401H9B7-AB1).

| normalized binding response [%] | Binder |
| --- | --- |
| 63 | B1 |
| 73 | B2 |
| 75 | B3 |

These binders were tested against T3, PYD domain of human ASC (assay: BLI binning on PYD, competitor 2617C3A8-AB1).

| normalized binding response [%] | Binder |
| --- | --- |
| 23 | B1 |
| 2 | B2 |
| 2 | B3 |

What follows are binders tested against T1, CARD domain of human ASC (assay: BLI binning on CARD, competitor 2504F3D9-Ab1).

| normalized binding response [%] | Binder |
| --- | --- |
| 33 | B4 |
| -3 | B5 |

The binders below were run against T3, PYD domain of human ASC (assay: BLI binning on PYD, competitor 31F10C5-AB1).

| normalized binding response [%] | Binder |
| --- | --- |
| 19 | B1 |
| 1 | B2 |
| 2 | B3 |

These binders were tested against T4, human ASC (apoptosis associated …) (assay: SPR affinity mode, mAb captured;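 further: Single-cycle SPR kinetics with mAbs captured on goat anti-mouse antibody, double-referenced against blank flow cell and buffer cycle, fitted by a 1:1 kinetic model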).

| Kd [nM] | koff [s⁻¹] | kon [M⁻¹ s⁻¹] | Binder |
| --- | --- | --- | --- |
| 0.7 | 0.000442 | 621000 | B4 |
| 1.87 | 8.05e-05 | 42000 | B1 |
| 1.06 | 0.000201 | 192000 | B5 |
| 0.38 | 0.000264 | 690000 | B2 |
| 0.15 | 0.000118 | 810000 | B3 |

These binders were tested against T2, mouse ASC (assay: SPR affinity mode, mAb captured;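 further: Single-cycle SPR kinetics with mAbs captured on goat anti-mouse antibody, double-referenced against blank flow cell and buffer cycle, fitted by a 1:1 kinetic model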).

| Kd [nM] | koff [s⁻¹] | kon [M⁻¹ s⁻¹] | Binder |
| --- | --- | --- | --- |
| 3.81 | 0.000101 | 27600 | B1 |
| 1.16 | 0.00069 | 598000 | B2 |
| 0.15 | 0.000162 | 1.09e+06 | B3 |

Each binder was assayed against T3, PYD domain of human ASC (assay: BLI binning on PYD, competitor 26A1G2-AB1).

| normalized binding response [%] | Binder |
| --- | --- |
| 3 | B1 |
| 0 | B2 |
| 2 | B3 |

What follows are binders tested against T3, PYD domain of human ASC (assay: BLI binning on PYD, competitor 2626B9D3-AB1).

| normalized binding response [%] | Binder |
| --- | --- |
| 33 | B1 |
| 74 | B2 |
| 88 | B3 |

The binders below were run against T3, PYD domain of human ASC (assay: BLI binning on PYD, competitor 22D3A6-AB1).

| normalized binding response [%] | Binder |
| --- | --- |
| 23 | B1 |
| 2 | B2 |
| 1 | B3 |

Molecular target: T2, mouse ASC
Experiment: cell-based or functional assay
Remark: another data set of the same source

| % IL-1β inhibition, mouse primary microglia, 420 nM mAb [%] | Binder |
| --- | --- |
| 82.8 | B4 |
| 52.1 | B1 |
| 66.7 | B5 |
| 40 | B2 |
| 94.3 | B3 |

These binders were tested against T3, PYD domain of human ASC (assay: BLI binning on PYD, competitor 23E5F7-AB2).

| normalized binding response [%] | Binder |
| --- | --- |
| 18 | B1 |
| 1 | B2 |
| 1 | B3 |

What follows are binders tested against T1, CARD domain of human ASC (assay: BLI binning on CARD, competitor 2609F4A9-Ab1).

| normalized binding response [%] | Binder |
| --- | --- |
| 68 | B4 |
| -3 | B5 |

Molecular target: T4, human ASC (apoptosis associated …)
Experiment: cell-based or functional assay
Remark: another data set of the same source

| IL-1β release, human monocytic cell line, IC50 [nM] | Binder |
| --- | --- |
| 15.9 | B4 |
| 13.9 | B5 |
| 41.1 | B2 |
| 20.3 | B3 |

What follows are binders tested against T1, CARD domain of human ASC (assay: ELISA, coated hCARD).

| EC50 [nM] | Binder |
| --- | --- |
| 0.18 | B4 |
| 0.11 | B5 |

Each binder was assayed against T4, human ASC (apoptosis associated …) (assay: ELISA, coated hASC;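 further: antibody binding to plate-coated recombinant human ASC, read as phosphatase substrate absorbance, EC50 from four-parameter variable-slope fit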).

| EC50 [nM] | Binder |
| --- | --- |
| 0.19 | B4 |
| 0.13 | B1 |
| 0.14 | B5 |
| 0.27 | B2 |
| 0.16 | B3 |

Each binder was assayed against T1, CARD domain of human ASC (assay: BLI binning on CARD, competitor 2622E12F11-Ab1).

| normalized binding response [%] | Binder |
| --- | --- |
| -3 | B4 |
| 106 | B5 |
